Assay results reported in FireProtDB (doi:10.1006/jmbi.2001.5050).

B1: Cold shock protein CspB, P41016 (parent)
chain: MQRGKVKWFNNEKGYGFIEVEGGSDVFVHFTAIQGEGFKTLEEGQEVSFEIVQGNRGPQAANVVKL

Variants of: B1
Conditions: Bacillus caldolyticus, pH 7, CD, sodium cacodylate-HCl 100 mM, reversible: yes, structure 1C9O, whole UniProt chain shown

Row | Variant | ddG of mutation (higher = less stable) (25 °C, GdnHCl) [kcal/mol] | denaturant m value (25 °C, GdnHCl) [kcal/mol/M] | denaturant midpoint (higher = more stable) (25 °C, GdnHCl) [M] | unfolding free energy (25 °C, GdnHCl) [kcal/mol] | ddG of mutation (higher = less stable) (70 °C, Thermal, NaCl 2 M) [kcal/mol] | unfolding free energy (70 °C, Thermal, NaCl 2 M) [kcal/mol] | ddG of mutation (higher = less stable) (70 °C, Thermal) [kcal/mol] | unfolding free energy (70 °C, Thermal) [kcal/mol] | Tm (Thermal) [°C] | change of melting temperature, mutant - wild type (higher = more stable) (Thermal) [°C] | unfolding enthalpy (van 't Hoff) (Thermal) [kcal/mol]
1 | Q2L | -0.41 | 1.7 | 2.95 | 1.6 | -0.29 | 2.49 | -0.55 | 1.63 | 80.9 | 4 | 57.8
2 | G23Q | 0 | 1.89 | 2.62 | 1.2 | 0.31 | 1.89 | 0.29 | 0.79 | 74.7 | -2.2 | 59.5
3 | E46A | -0.1 | – | 2.77 | 1.29 | 0.12 | 2.08 | 0.22 | 0.86 | 75.4 | -1.5 | 57.6
4 | R3E E46A | 0.43 | 1.63 | 2.47 | 0.76 | 0.96 | 1.24 | – | – | 64.6 | -12.3 | 52.8
5 | E21A | – | – | – | – | 0.29 | 1.91 | 0.29 | 0.79 | 75 | -1.9 | 57.8
6 | G23Q S24D | -0.07 | 1.67 | 2.75 | 1.27 | 0.1 | 2.1 | 0.12 | 0.96 | 75.9 | -1 | 59.5
7 | Y15F | 0.1 | 1.6 | 2.69 | 1.1 | -0.07 | 2.27 | 0.05 | 1.03 | 76.7 | -0.2 | 56.6
8 | L66A | – | – | – | – | 0.07 | 2.13 | – | – | – | – | –
9 | L66E | 0.84 | 1.74 | 2.21 | 0.36 | 1.27 | 0.93 | – | – | 68.9 | -8 | 50.2
10 | V64T | 0.31 | 1.79 | 2.5 | 0.88 | 0.19 | 2.01 | 0.26 | 0.81 | 75.1 | -1.8 | 58.3
11 | T31S | – | – | – | – | -0.19 | 2.39 | -0.17 | 1.24 | 77.8 | 0.9 | 59.8
12 | N11S | 0 | 1.74 | 2.69 | 1.2 | -0.22 | 2.41 | -0.33 | 1.41 | 79.2 | 2.3 | 58.8
13 | S24D | -0.1 | 1.65 | 2.79 | 1.29 | -0.19 | 2.39 | -0.22 | 1.29 | 77.8 | 0.9 | 61.7
14 | R3K | – | – | – | – | 0.14 | 2.06 | 0.19 | 0.88 | 76.1 | -0.8 | 53.5
15 | R3L | – | – | – | – | 0.22 | 1.98 | 0.93 | 0.14 | 70.9 | -6 | 55.7
16 | R3E | 0.84 | 1.6 | 2.23 | 0.36 | 1 | 1.2 | – | – | – | – | –
17 | R3A | – | – | – | – | 1.05 | 1.15 | – | – | 64.9 | -12 | 51.4
18 | R3E E21A | – | – | – | – | 1.1 | 1.1 | – | – | 60 | -16.9 | 49.2
19 | E46A L66E | 0.84 | 1.84 | 2.2 | 0.36 | 1.39 | 0.81 | – | – | 68 | -8.9 | 51.9
20 | E46A L66A | – | – | – | – | 0.22 | 1.98 | 0.29 | 0.79 | 75 | -1.9 | 56.9
21 | R3E L66E | – | – | – | – | – | – | – | – | 44.6 | -32.3 | 36.8
22 | Q53E | -0.02 | 1.82 | 2.68 | 1.22 | 0 | 2.2 | 0.1 | 0.98 | 76.1 | -0.8 | 58.8
23 | R3E E46A L66E | – | – | – | – | – | – | – | – | 50.3 | -26.6 | 40.4
